For data set [1], the system named is T1, SF370.1 serine recombinase (SF370.1-HA-NLS) (Streptococcus pyogenes phage 370.1).
T1 sequence: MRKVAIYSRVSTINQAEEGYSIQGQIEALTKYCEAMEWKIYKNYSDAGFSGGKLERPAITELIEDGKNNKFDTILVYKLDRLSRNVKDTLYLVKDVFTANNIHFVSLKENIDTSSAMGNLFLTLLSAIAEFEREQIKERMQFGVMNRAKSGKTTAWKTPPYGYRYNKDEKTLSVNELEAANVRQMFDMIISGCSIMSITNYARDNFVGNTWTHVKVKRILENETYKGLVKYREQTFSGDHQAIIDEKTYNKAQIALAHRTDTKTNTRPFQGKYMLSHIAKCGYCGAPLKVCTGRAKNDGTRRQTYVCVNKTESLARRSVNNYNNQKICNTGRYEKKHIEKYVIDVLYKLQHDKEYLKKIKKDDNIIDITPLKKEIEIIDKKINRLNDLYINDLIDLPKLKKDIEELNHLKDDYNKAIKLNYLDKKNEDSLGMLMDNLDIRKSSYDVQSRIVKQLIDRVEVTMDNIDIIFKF
Put plainly: cell_activity. The conditions noted are these: lettuce; 1 colony without recombinase.

Data set [2] has as its target SPβc2 serine recombinase (SPβc2-HA-NLS) (Bacillus subtilis phage SPβc2) (UniProt O32006). The data set can be described thus: cell_activity. The conditions noted are these: lettuce initial screen; attP gave 27; background level.

For 2 substances, activity (GFP+ Kan resistant colonies) and activity results are on record in US20210395761.

Sequence of SPβc2 serine recombinase (SPβc2-HA-NLS) (Bacillus subtilis phage SPβc2) (O32006 whole entry): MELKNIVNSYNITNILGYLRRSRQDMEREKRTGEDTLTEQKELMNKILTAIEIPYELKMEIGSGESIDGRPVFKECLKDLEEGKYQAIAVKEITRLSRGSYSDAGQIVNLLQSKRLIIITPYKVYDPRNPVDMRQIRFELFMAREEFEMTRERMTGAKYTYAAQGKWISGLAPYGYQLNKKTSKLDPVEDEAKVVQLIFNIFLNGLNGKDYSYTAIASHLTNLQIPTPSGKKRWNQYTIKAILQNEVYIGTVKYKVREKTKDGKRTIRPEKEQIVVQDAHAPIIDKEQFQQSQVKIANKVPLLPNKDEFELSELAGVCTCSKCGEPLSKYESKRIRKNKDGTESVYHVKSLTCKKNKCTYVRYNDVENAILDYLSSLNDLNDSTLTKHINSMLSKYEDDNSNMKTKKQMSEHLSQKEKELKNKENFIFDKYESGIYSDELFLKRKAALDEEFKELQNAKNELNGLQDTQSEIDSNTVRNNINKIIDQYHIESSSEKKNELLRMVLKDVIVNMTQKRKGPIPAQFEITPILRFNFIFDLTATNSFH

Take “ATTTTTGTATCCAGTTCAATGGATATTTGATATAATCGTCTTAAAAAGGAGGTCGTGAAATGGATAAAAAAATACAGCGTTTTTCATGTACAACTATACTAGTTGTAGTGCCTAAATAATGCTTTTAAAACTTAAAAATAATATCGATGTTATCCATAGTAACCTCGACTCTATCTATCAATTGCTTAACTATCCTAGAT (double strand) [SF370 attP]”: in data set [1], the activity (GFP+ Kan resistant colonies) came out at 4.

siteless reporter plasmid: in data set [2], the activity was 1 GFP+ colony.
